Earlier results, collected in patent US20220031810A1, “FORMULATIONS OF GLUCAGON-LIKE-PEPTIDE-2 (GLP-2) ANALOGUES” (Zealand Pharma A/S, priority 2018, published 2022).
Like-named read-outs stand apart in the source and are kept apart here.

half-life (Gly substitution at position 2, compared with native GLP-2) | Compound | half-life (in humans) | half-life (in humans, listed as native GLP-2)
about two | CC[C@H](C)[C@H](NC(=O)[C@H](Cc1ccccc1)NC(=O)[C@H](CC(=O)O)NC(=O)[C@H](CCCNC(=N)N)NC(=O)[C@H](C)NC(=O)[C@H](C)NC(=O)[C@H](CC(C)C)NC(=O)[C@H](CC(N)=O)NC(=O)[C@H](CC(=O)O)NC(=O)[C@H](CC(C)C)NC(=O)[C@@H](NC(=O)[C@@H](NC(=O)[C@H](CC(N)=O)NC(=O)[C@H](CCSC)NC(=O)[C@H](CCC(=O)O)NC(=O)[C@H](CC(=O)O)NC(=O)[C@H](CO)NC(=O)[C@H](Cc1ccccc1)NC(=O)[C@H](CO)NC(=O)CNC(=O)[C@H](CC(=O)O)NC(=O)CNC(=O)[C@@H](N)Cc1c[nH]cn1)[C@@H](C)O)[C@@H](C)CC)C(=O)N[C@@H](CC(N)=O)C(=O)N[C@@H](Cc1c[nH]c2ccccc12)C(=O)N[C@@H](CC(C)C)C(=O)N[C@H](C(=O)N[C@@H](CCC(N)=O)C(=O)N[C@H](C(=O)N[C@@H](CCCCN)C(=O)N[C@H](C(=O)N[C@H](C(=O)N[C@@H](CC(=O)O)C(=O)O)[C@@H](C)O)[C@@H](C)CC)[C@@H](C)O)[C@@H](C)CC [teduglutide] | – | –
– | GLP-2 [3-33]: truncated GLP-2 [3-33] (DGSFSDEMNTILDNLAARDFINWLIQTKITD; Glucagon-like peptide 2; UniProt P01275 148-178, looked up, fragment) | ~27 min | –
– | Hy-His-Ala-Asp-Gly-Ser-Phe-Ser-Asp-Glu-Met-Asn-Thr-Ile-Leu-Asp-Asn-Leu-Ala-Ala-Arg-Asp-Phe-Ile-Asn-Trp-Leu-Ile-Gln-Thr-Lys-Ile-Thr-Asp-OH [GLP-2 [1-33]] | around 7 minutes | seven
